Data set [1] is described as follows: Size exclusion chromatography: biochemical integrity, monomer content. In kind it is physicochemical. To be noted: by anti-solvent used in processing. The method, then:
A protein-Pak 125 column (Waters, USA) was used for insulin. The mobile phase consisted of 50 mM sodium phosphate buffer at pH 3 with 300 mM sodium chloride. The powder samples were dissolved to prepare 1 mg/mL solution in deionised water by gentle shaking for 10 minutes to have complete dissolution. The supernatant was filtered through […] membrane filter and then injected into the HPLC column. […] The software Millennium 3.5 was used in the quantification of the monomer content.
In general terms: In gel filtration, larger molecules generally elute earlier.

For data set [2] the following is noted: values reported in the literature; cited from earlier work.
Data set [3] in a line: Size of precipitated primary particles (SEM images). In kind it is physicochemical. The source says:
These fine insulin particles may aggregate to form larger particles due to intermolecular interaction between the molecules.

The nature of data set [4]: Aerosol performance by Cascade Impactor (5 stage Marple-Miller Impactor), fine particle mass. It counts as physicochemical. To be noted: 60 L/min, Dinkihaler, FIG. 6.
Description: In order to determine the aerosol performance of the collected fine protein particles, in vitro testing of the particles was assessed using a 5 stage Marple-Miller Impactor (Model 160, MSP Corporation, USA) with cut-off diameters of 10.0, 5.0, 2.5, 1.25, and 0.625 μm. The Marple-Miller impactor consisted of a stainless steel inlet throat, five impaction stages and an integral filter stage. The stages were previously coated with propylene glycol/methanol (50:50) to prevent particle bounce, thus minimising the probability of carry over of coarse particles onto lower stages.
A mass of 10-20 mg of insulin was weighed into a gelatin capsule (size 3, Park Davis, Australia) and was immediately dispersed by a powder inhaler device, Dinkihaler (Aventis, Frankfurt, Germany) into the Marple Miller Impactor at 60 L/min using a vacuum source (ERWEKA GMBH, Germany). The fraction of the protein recovered in each stage was calculated by measuring the absorbance of the protein solution against the absorbance of a standard 1% solution of insulin.
Data set [5] in a line: Median particle size by laser diffraction. In kind it is physicochemical. The source says: These fine insulin particles may aggregate to form larger particles due to intermolecular interaction between the molecules. […] Insulin precipitated as nano-sized particles, was also agglomerated to micron-sized particles.

Read-outs that look alike come from different tables or passages of the source. Some results are limits rather than exact numbers.

In the case of “CO2-ethanol: Insulin particles precipitated from aqueous solution using CO2-20 mol % ethanol as anti-solvent”, the “retention of biological activity as indicated by the in vitro test for monomer content” value in data set [1] is “significant deactivation”.

As to Ethane-ethanol, the “retention of biological activity as indicated by the in vitro test for monomer content” value in data set [1] is “retention of biological activity”.

For “insulin: Low endotoxin bovine insulin (Sigma), micronised from aqueous solution by the ASES process into fine particles”, the “maximum FPM for insulin obtained by other methods” value in data set [2] is at most 10%. Moreover, the “size of nano-sized particles as precipitated” value in data set [3] (modified (dual chamber) ASES apparatus) and in data set [3] (single-stage apparatus) was 50-500 nm throughout. In addition, the “fine particle fraction (%<5 μm)” value in data set [4] is “at least 42%”. Moreover, the “median particle size (laser diffraction) of agglomerated powder” value in data set [5] was 5 μm; in data set [5] (listed as Insulin), “about 5 μm”.

Source of the values: patent publication US8609611B2, “Synthesis of small particles” (MAP Pharmaceuticals, Inc., priority 2001, dated 2013).
